{
  "source": "paper doi:10.1101/2020.09.22.308395",
  "molecular_target": "UDP-GlcNAc 4-epimerase (Gne) from Campylobacter jejuni (Campylobacter jejuni)",
  "experiment": "SEC-MALLS",
  "data": [
    {"substance": "UDP-GlcNAc 4-epimerase (Gne) from Campylobacter jejuni (enzyme)", "values": [
      {"measurement": "stoichiometry N", "result": 2}
    ]}
  ]
}
